Patent US20230002757A1 (ZHEJIANG NANOMAB TECHNOLOGY CENTER, published 2023)
Each block holds one binder with its values, some of them ahead of it.

Assays:
[1] = target: T1, mesothelin (MSLN), full length (UniProt Q13421 296-598, limits assumed); assay: ELISA, supernatant
T1 construct: coating antigen of the ELISA; construct not described

PD-1 protein [2] = target: T2, PD-1 protein (human, UniProt Q15116 25-167, limits assumed); assay: ELISA, PD-1 coated
T2 construct: also called human PD-1
Method: 2 μg/ml of PD-1 protein is coated on 96-well plates overnight for ELISA binding assay. Recombinant VHH-FC proteins are added to the wells and allowed to stand for a period of time, then 1 μg/ml of HRP-conjugated anti-FC antibody is added as detection antibody and the assay reagents are added. The absorbance is read at 450 nm. Binding of nivolumab serves as a positive control and plates coated with BSA are used as the negative control group.

PD-1 protein [3] = target: T2, PD-1 protein; assay: blocking ELISA, PD-1 coated, competitor biotin PD-L1
Method: Each well of 96-well microtiter plates is coated with 2 μg/ml of PD-1 protein in PBS and blocked with 1% BSA. […]
The intensity of the developed color is measured at 450 nm. Wells with no added PD-1 and no added VHH-FC are negative and positive controls, respectively.

[4] = target: T3, EGFR on 293T-EGFR cells (293T cells negative for BCMA expression) (UniProt P00533 25-1210, limits assumed); assay: flow cytometry
T3 construct: whole, on cells; negative control cells; that they carry EGFR is read from the label only

BCMA-His = target: T4, BCMA-His (human, UniProt Q02223 1-54); assay: ELISA, BCMA-His coated 1 ug/mL
T4 construct: coating antigen, 1 ug/mL; also called His-conjugated human BCMA; not shown: His tag
T4 sequence (looked up): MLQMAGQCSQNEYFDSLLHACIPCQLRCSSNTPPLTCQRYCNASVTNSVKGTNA

BCMA on RPMI8226 cells = target: T5, BCMA on RPMI8226 cells (UniProt Q02223 1-184, limits assumed); assay: FACS on RPMI8226 cells
T5 construct: whole, on cells
T5 sequence (looked up): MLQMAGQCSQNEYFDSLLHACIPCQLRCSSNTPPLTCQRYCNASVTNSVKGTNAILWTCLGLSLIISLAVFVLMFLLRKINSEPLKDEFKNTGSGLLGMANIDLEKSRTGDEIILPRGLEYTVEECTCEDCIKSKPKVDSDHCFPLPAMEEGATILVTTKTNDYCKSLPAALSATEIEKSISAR

Anti-His = target: T6, Anti-His; assay: ELISA, Anti-His coated 1 ug/mL
T6 construct: ELISA coating control

[5] = target: T3, EGFR on 293T-EGFR cells (293T cells …); assay: FACS on 293T-EGFR cells (BCMA negative)
BCMA-Fc = target: T7, BCMA-Fc (human, UniProt Q02223 1-54); assay: ELISA, BCMA-Fc coated 1 ug/mL
T7 construct: coating antigen, 1 ug/mL; also called Fc-conjugated human BCMA; not shown: Fc
T7 sequence (looked up): T4 sequence (looked up)

human IgG = target: T8, human IgG; assay: ELISA, human IgG coated 1 ug/mL
T8 construct: ELISA coating control

T2 sequence (Q15116 25-167 limits assumed): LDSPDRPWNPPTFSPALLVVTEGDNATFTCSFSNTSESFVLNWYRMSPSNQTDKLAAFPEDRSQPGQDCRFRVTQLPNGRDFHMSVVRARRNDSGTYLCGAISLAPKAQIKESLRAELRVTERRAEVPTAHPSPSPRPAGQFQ
T1 sequence (Q13421 other isoform, or with tags, fused parts or gaps limits assumed): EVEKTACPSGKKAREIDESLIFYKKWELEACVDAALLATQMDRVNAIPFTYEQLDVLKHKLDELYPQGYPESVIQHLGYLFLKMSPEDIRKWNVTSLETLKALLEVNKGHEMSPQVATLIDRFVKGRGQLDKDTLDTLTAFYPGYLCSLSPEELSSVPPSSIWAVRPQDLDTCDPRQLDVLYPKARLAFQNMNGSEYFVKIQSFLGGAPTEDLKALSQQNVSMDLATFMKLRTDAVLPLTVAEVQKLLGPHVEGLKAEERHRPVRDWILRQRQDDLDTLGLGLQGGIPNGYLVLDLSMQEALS

B1: NBL501#007 (VHH)
VHH: QVQLVESGGGLVQPGGSLTLSCAASGFTFSSYYMSWVRQAPGKGPEWVSIISTGGASTVYTDSVKGRFTASRDNAKNTLYLQMNSLKPEDTALYYCVRGNSRSGLIPRAYWGQGTQVTVSS
notes: tested as supernatant in ELISA
- binding result [1]: no binding

B2: 504#SS8 (Fc fusion)
VHH: EVQVVESGGGLVQAGGSLRLSCTASGRTFSNYAMGWFRQAPGKEREFVASVTWGGSGTFYADSVKGRFTISRDNIKNTVYLQMNSLKPEDTAVYYCAADNVGDSWYSDDYKYWGQGTQVTVSS
notes: VHH-FC construct from HEK293 cells; not shown: The (G4S)3 linker leading to it is left out with it
- OD450 at 0.002 µg/mL (PD-1 protein [2]): 0.03 OD450
- OD450 at 0.02 µg/mL (PD-1 protein [2]): 0.03 OD450
- OD450 at 0.2 µg/mL (PD-1 protein [2]): 0.03 OD450
- OD450 at 2 µg/mL (PD-1 protein [2]): 0.04 OD450
- OD450 of PD-L1 bound, antibody at 0.15 µg/mL (PD-1 protein [3]): 3.27 OD450
- OD450 of PD-L1 bound, antibody at 0.61 µg/mL (PD-1 protein [3]): 3.28 OD450
- OD450 of PD-L1 bound, antibody at 2.42 µg/mL (PD-1 protein [3]): 3.33 OD450
- OD450 of PD-L1 bound, antibody at 9.75 µg/mL (PD-1 protein [3]): 3.27 OD450

B3: NBL507-A1L1-P1R2-1B8-(44)-PME207-SEQF_D06 (VHH)
VHH: QVQLVESGGGLVQPEGSLRLSCAASGSIFSIYAMGWYRQAPGKQRGLVAAITSGGDTFYADSVKGRFTISRDNARNTVYLQMNNLKSEDTAVYDCNGAPWGDHAPLVASWGQGTQVTVSS
notes: purified VHH
- binding result [4]: no binding
- OD450 (BCMA-His): 2.27 OD450
- MFI (BCMA on RPMI8226 cells): 1810 MFI
- OD450 (Anti-His): 1.79 OD450
- MFI [5]: 219 MFI
- OD450 (BCMA-Fc): 2.47 OD450
- OD450 (human IgG): 0.01 OD450

B5: 504#SS12 (Fc fusion, not shown: a dimerising Fc or GST; small tags and cut ends)
VHH: EVQVVESGGGLVQPGGSLRLSCAVSGRGFSEHAMGWYRQSPGKQREFVAGVTSYGGTNYADSVKGRFTISRDNVGNTVFLQMNSLKPEDTAVYYCNYKRGHYPDGVSTYEYWGQGTQVTVSS
notes: VHH-FC construct from HEK293 cells
- OD450 at 0.002 µg/mL (PD-1 protein [2]): 0.03 OD450
- OD450 at 0.02 µg/mL (PD-1 protein [2]): 0.03 OD450
- OD450 at 0.2 µg/mL (PD-1 protein [2]): 0.04 OD450
- OD450 at 2 µg/mL (PD-1 protein [2]): 0.07 OD450
- OD450 of PD-L1 bound, antibody at 0.15 µg/mL (PD-1 protein [3]): 3.22 OD450
- OD450 of PD-L1 bound, antibody at 0.61 µg/mL (PD-1 protein [3]): 3.2 OD450
- OD450 of PD-L1 bound, antibody at 2.42 µg/mL (PD-1 protein [3]): 3.27 OD450
- OD450 of PD-L1 bound, antibody at 9.75 µg/mL (PD-1 protein [3]): 3.28 OD450

The next lines start with the values.

- binding result [4]: no binding
- OD450 (BCMA-His): 2.37 OD450
- MFI (BCMA on RPMI8226 cells): 2420 MFI
- OD450 (Anti-His): 2.1 OD450
- MFI [5]: 230 MFI
- OD450 (BCMA-Fc): 2.47 OD450
- OD450 (human IgG): 0.03 OD450
B4: NBL507-A1L1-P1R2-1A1-(1)-PME207-SEQF_A01 (VHH)
VHH: EVQLVESGGGLVQPGGSLRLSCAASGFTFRSSAMSWARQAPGKGLEWVSDIYPDGRTDYADSIKGRFTMSRDNAKNTVYLLMDSLKPEDTAVYHCQVGRYVSGVYYQPRGQGTQVTVSS
notes: purified VHH; also called lAl

- binding result [1]: no binding
B6: NBL501#010 (VHH)
VHH: QVKLEESGGGLVQAGGSLRLSCVASGSIFSINAMGWYRRAPGKERELVASISSDGSIYYADSVKGRFTISRDNAKNTLYLQMNSLKPEDTAMYDCAALGVVNVGVRPTLEYIYWGQGTQVTVSS
notes: as for B1

- binding result [4]: no binding
- OD450 (BCMA-His): 2.32 OD450
- MFI (BCMA on RPMI8226 cells): 1260 MFI
- OD450 (Anti-His): 0.57 OD450
- MFI [5]: 222 MFI
- OD450 (BCMA-Fc): 2.35 OD450
- OD450 (human IgG): 0.02 OD450
B7: NBL507-A1L1-P1R2-1D2-(9)-PME207-SEQF_A02 (VHH)
VHH: QVQLVESGGGLVQPGGSLRLSCAASGFTFSSSAMSWARQAPGKGLECVSDIYPDGTSSYADSMKGRFTISRDNTRNTMYLQMNVLKPEDTATYYCVIGRGGYAMGDRRLRGQGTQVTVSS
notes: purified VHH

- binding result [4]: no binding
- OD450 (BCMA-His): 2.37 OD450
- MFI (BCMA on RPMI8226 cells): 2550 MFI
- OD450 (Anti-His): 2.44 OD450
- MFI [5]: 227 MFI
- OD450 (BCMA-Fc): 2.53 OD450
- OD450 (human IgG): 0.03 OD450
B8: NBL507-A1L1-P1R2-1E2-(10)-PME207-SEQF_B02 (VHH)
VHH: EVQLVESGGGLVQPGGSLRLSCAASGSISSIYAMGWYRQAPGKLRELVAAITTGGSTFYRDSVKGRFTISRDNVANTVYLQMNSLKPEDTAVYHCNGAPWGDIAPVAVSWGQGTQVTVSS
notes: purified VHH

- binding result [4]: no binding
- OD450 (BCMA-His): 2.25 OD450
- MFI (BCMA on RPMI8226 cells): 864 MFI
- OD450 (Anti-His): 1.96 OD450
- MFI [5]: 216 MFI
- OD450 (BCMA-Fc): 2.52 OD450
- OD450 (human IgG): 0.03 OD450
B9: NBL507-A1L1-P1R2-1B6-(31)-PME207-SEQF_G04 (VHH)
VHH: QVQLVESGGGLVQPGGSLRLSCAASGFTFSPSAMSWARQAPGKGLEWVSGIYSDGSTYYRDSVKGRFTISRDNARNMVYLQMNSLKPEDTAVYYCALGAMREGVYSDLLGQGTQVTVSS
notes: purified VHH
